This sample holds only a part of the variants without activity.
B1: TPR 5TU (parent)
chain: GGAUCUUCUCGAUCUAACAAAAAAGACAAAUCUGCCACAAAGCUUGAGAGCAUCUUCGGAUGCAGAGGCGGCAGCCUUCGGUGGCGCGAUAGCGCCAACGUUCUCAACUAUGACACGCAAAACGCGUGCUCCGUUGAAUGGAGUUUAUCAUG

Variants of: B1
Test: polymerase ribozyme fitness, log enrichment relative to wild type (log ratio); higher = more active; in vitro selection for triplet polymerase activity
Procedure, shortened: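 Mutant libraries of both subunits of a heterodimeric triplet polymerase ribozyme were PCR-built, transcribed, and selected once in triplicate, with frozen incubation at −7 °C and capture of gel-excised extended constructs on streptavidin beads before RT-PCR. Illumina sequencing of input and output libraries was filtered to genotypes with ≥10 input reads and ≥1 read per output. Fitness is the logarithm of genotype enrichment over wild-type enrichment, using inverse-variance-weighted replicate averages. The logarithm is base 2.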

| Variant | polymerase ribozyme fitness (log ratio) |
| --- | --- |
| A20G C36G G83A A91G A142G | ≤ -4.2 |
| A19U U31A G58C C63U G70C C95U C131G G152U | ≤ -4.2 |
| A20C A24U U44A G88A C93U | ≤ -4.2 |
| A19U A120U | -0.806 |
| A19U C54U U134C A150C | -2.5 |
| A20U A41U G48A A49G C96G A106G A107G U135G | ≤ -4.2 |
| A19U C35U | -0.444 |
| A20G G74A C87U U101C A107U | ≤ -4.2 |
| A20U A21U | -0.727 |
| A20G G81A C96U C114G U127G A142C | ≤ -4.2 |
| A20U A47U A49C U53A G80C A91U C96U A137G G140U | ≤ -4.2 |
| A19U C85A | -1.33 |
| A19U C85G | -2.18 |
| A20G A21C C93A A97G | -3.83 |
| A19U C87U G141U U146C | 0.666 |
| A19U C35U G42U U55G G67A C85G A97C C114G G140U | ≤ -4.2 |
| A20G C96A | -1.84 |
| A20C C99G | -1.06 |
| A19U U56A A60G U104G G152A | -2.82 |
| A20C U33A C43U G88U G92A A115C G126A C132U A147C | ≤ -4.2 |
| A19U U45G G83C U127A | ≤ -4.2 |
| A20U A49G A66C A73U C79U A106U A107C | ≤ -4.2 |
| A20U A29C A30G C54A G67C G80U C93U G94A A97C C99U | ≤ -4.2 |
| A20G G50C C54G C105G A106U G133C U151A | ≤ -4.2 |

| Variant | polymerase ribozyme fitness (log ratio) |
| --- | --- |
| A20G C85U G94U C95G C125U | -3.59 |
| A20G A22U C87U | -2.33 |
| A20U A24G C32G U78A G83C | ≤ -4.2 |
| A20U A28U A39U G83A G141A | -4.1 |
| A20U A24C C54U C63U G65U G84A C132G U148A | ≤ -4.2 |
| A20C A60G | -0.605 |
| A20U A49G C85U A110G U148A | ≤ -4.2 |
| A19U C51U G58C C85U A91U C114U C118U | ≤ -4.2 |
| A20C A47C A60G C85A G140U | ≤ -4.2 |
| A19U A49G C57A A60U C116U | -2.27 |
| A20C A49G G81A C87G U104G A138C | ≤ -4.2 |
| A19U U33A G84A G92C G94C | ≤ -4.2 |
| A20C A28U G48C G70A C87G A120G U135C | ≤ -4.2 |
| A19U G34U C51U U53C G81A G86U G92A C96U A98G | ≤ -4.2 |
| A19U C27U C36A G42C G86A G100C C118G | ≤ -4.2 |
| A20U A23C C35U C75U C103G G136A | ≤ -4.2 |
| A20U A39C | -3.84 |
| A20C U56A C75U | -0.244 |
| A19U G59U G86A G136A | -2.01 |
| A20G G59A | -0.551 |
| A20G A52G G58U C87U | -0.805 |
| A20C U56G G92U | -0.962 |
| A20U A22G C51A G92A C93A C132U | ≤ -4.2 |
| A20G U53A U56A G58A C69U C93U | -3.35 |

| Variant | polymerase ribozyme fitness (log ratio) |
| --- | --- |
| A20C A24U C93U U130G A150G | ≤ -4.2 |
| A19U C131A | -1.75 |
| A20U A22U A121U G128A C129U A137C A138C | ≤ -4.2 |
| A19U A91G C93G U111A A137C | ≤ -4.2 |
| A20G A37G A106G A138C | -3.84 |
| A19U A73G G86U | -1.03 |
| A20C C36U C85G C103G | ≤ -4.2 |
| A20U A47C C57U A64C G84C U148G | ≤ -4.2 |
| A19U U44A C95U C99G | ≤ -4.2 |
| A19U C96U | -0.369 |
| A19U C96A | -0.531 |
| A20C A49C A52C C57U C76A G88A A106G G126C U145G | ≤ -4.2 |
| A20G G42C G84A C149A | ≤ -4.2 |
| A20G A73U G83A | -2.36 |
| A20C C43U U44A U55G C79U G141A | ≤ -4.2 |
| A20U A49C G58C C87U | ≤ -4.2 |
| A20C G94A G136U | -3.83 |
| A20G A22U G59A C93G A98G A137G U139G | ≤ -4.2 |
| A20G C35G C51A C85U C99U C129A U148A | ≤ -4.2 |
| A20G C63A G74A C93A | ≤ -4.2 |
| A20C A21G A23C A28U C38A | ≤ -4.2 |
| A20C A73C G81A U90C G92C U104G | ≤ -4.2 |
| A20C A26C A30C U44G G50A A66C | ≤ -4.2 |
| A20G C43U G62U A91G | ≤ -4.2 |

| Variant | polymerase ribozyme fitness (log ratio) |
| --- | --- |
| A20U A28U C96G | ≤ -4.2 |
| A20U A28U G42C G86U C93A C114U | -4.17 |
| A20G A29C G46U C54U C96U C116A U148A | ≤ -4.2 |
| A20C G46A C69G G94A | -2.22 |
| A20G G80C U82A G100A U135C | ≤ -4.2 |
| A19U U55G C85G C96U C116A U139A | ≤ -4.2 |
| A20G C76A U90G A97G G136C | ≤ -4.2 |
| A20U A22C U82G G86U U101G C103G G143U | ≤ -4.2 |
| A20C U101G C149U | -1.64 |
| A20C G81C C87U | -1.28 |
| A20U A52G C75U G88A C103G A119C | ≤ -4.2 |
| A20U A40U A49C G94A C99A G143A | ≤ -4.2 |
| A19U C69G C72U G84A | -3.03 |
| A20G A21C U31C C103A U144G | -1.73 |
| A19U C123U | -0.609 |
| A19U A49C C69U U77G C79A G84A C99A A113C C114G A142C | ≤ -4.2 |
| A20C U90G C99U G136C | ≤ -4.2 |
| A20G C87U U148A | -3.21 |
| A20C U61G C75U U146A | -2.77 |
| A20C A21U A23C C51A C123A A138U | ≤ -4.2 |
| A20C C93G | -3.89 |
| A20C C93U | -1.41 |
| A19U C69U G92C G126C | -1.04 |
| A19U U55G G86U | -1.7 |

| Variant | polymerase ribozyme fitness (log ratio) |
| --- | --- |
| A20C C96U | -1.24 |
| A20U A39U C51G A66C C93G U134A | ≤ -4.2 |
| A20C U56A C93A C116A | -1.28 |
| A20C G25U C51A U77G G94C A115U G140C | ≤ -4.2 |
| A20C C36A | -4.06 |
| A20G C32G G86U C87A U109A | ≤ -4.2 |
| A20C A24C C51A G74C G94U A121U U135G U148C | ≤ -4.2 |
| A20G A30U C95U | -3.5 |
| A20C G50U G81C C103U A120U | -2 |
| A19U G59A G83U C95A C132U G136U G141A | ≤ -4.2 |
| A20C A39U A106G C131U A138U | ≤ -4.2 |
| A20C U53A U55A | -2.52 |
| A19U G94A | -1 |
| A20C A29C C87G A122G G140U | ≤ -4.2 |
| A20C G136A | -0.55 |
| A19U U31C G46A C96U C131U U139G | -2.16 |
| A20C A40C U56A G92U | -0.349 |
| A20G C51U | -0.842 |
| A20C C32A A52G A91U G94A C99U A147U G152U | -3.97 |
| A19U G81A | -0.839 |
| A20G A40C A41G A49C C76G G88A C96U | ≤ -4.2 |
| A20U A30G U53A U55G C63G G141U | ≤ -4.2 |
| A20C U31G A49C A52C U53C | ≤ -4.2 |
| A20U A40C | -0.959 |

| Variant | polymerase ribozyme fitness (log ratio) |
| --- | --- |
| A20G G25A A40U A47G G48C C85A A142G | ≤ -4.2 |
| A20G C69U G84C G126C G136A | -1.72 |
| A19U A49C C54A G62A A119G C125U U144A | ≤ -4.2 |
| A20C C87A C116U | ≤ -4.2 |
| A19U U45G | -0.38 |
| A20C C63U G88C C95U | ≤ -4.2 |
| A20C G59A G81C G86C | -3.14 |
| A20U A22U C43A G84C C108G C116G | ≤ -4.2 |
| A20G A29U C51A A106C A113U | -4.2 |
| A20U A28C G83U C87A C99G G140A | ≤ -4.2 |
| A20C C76U C85U C95U C96U | -3.03 |
| A20G C93A C132G U134G U148G | ≤ -4.2 |
| A20G A47C G48C G50C U56C C87A C95G U139A G141A | -4.1 |
| A20G G80A U82G C95U | -1.15 |
| A19U A52C | -1.34 |
| A20C G25C G34U C54A A91G A119U A122U G124U C125G | ≤ -4.2 |
| A20U A23U A64C A91G A107G | ≤ -4.2 |
| A19U G25U C35A G65U A91U A120G G140A A142U | -4.19 |
| A20U A41U U55A A66U G84A C116A | ≤ -4.2 |
| A20C U61A C63U C85U | -1.55 |
| A20G A24U C85A C116A | -0.238 |
| A20C U53A | -2.16 |
| A20G A22U C93G | -4.09 |
| A20C A23U C27A G58U C72A A89G C99A A107C | ≤ -4.2 |

| Variant | polymerase ribozyme fitness (log ratio) |
| --- | --- |
| A19U G46U A52U | ≤ -4.2 |
| A19U C38G G59C G86A C99U G117U C118A U127A A138G | ≤ -4.2 |
| A20U A29U U55A A66C A106U A138U | ≤ -4.2 |
| A20C U31G U53A U55G A115C | -2.82 |
| A19U U33C C69U G126U | -0.898 |
| A20G G68U C85U | ≤ -4.2 |
| A20C C54U G86C U101C U104A | ≤ -4.2 |
| A20C C85U G86U C93A A119U A121G | -1.77 |
| A20G U33C C87U A89G U151G | ≤ -4.2 |
| A20U A30U C76U A89G A91C A122G U134G | ≤ -4.2 |
| A20G G83A G88C C93G G100A C149U | ≤ -4.2 |
| A19U C85G A121G | -1.62 |
| A20G U102G A107U C116U A142U | ≤ -4.2 |
| A20C U56A A107U | -2.71 |
| A20U A21C U102A C125G | -3.5 |
| A20C U55A G67C G124A A137U | ≤ -4.2 |
| A20G A24G C51U C85U A120U C149G | ≤ -4.2 |
| A20C U55G C57U A120C | -0.73 |
| A20C C27U G81A G86A C99G | -2.96 |
| A20G C27G G67C U78G A89U C93G G124A U151G | ≤ -4.2 |
| A20C A30C G100C U102G G143U U145G | ≤ -4.2 |
| A20C A98U | -1.29 |
| A19U G59C A89U G92C A121G | -2.25 |

Reference: the RNAGym collection of RNA variant scans (doi:10.1073/pnas.2313332121)
